# From US20150125904A1, “PROBE INCORPORATION MEDIATED BY ENZYMES” (Massachusetts Institute of Technology, priority 2012, published 2015)
# Tests used:
# [1] = target: biotinylated LAP-mCherry fusion protein; assay: gel shift on SDS-PAGE of HEK cell lysate incubated with 5 µM streptavidin, in-gel mCherry fluorescence
# [2] = system: O=C(O)CCCNC(=O)c1cc2cc(F)c(O)c(F)c2oc1=O; assay: purified protein, by the assay type; conditions: other: ligation to LAP, 2 μM ligase, 600 μM LAP; pH 7.2
substance,measurement,setting,value
streptavidin protein (from UniProt P22629 37-163),percent of LAP-mCherry shifted up to ~80 kD,[1],21%
E20G/W37TLplA (Escherichia coli K-12; E21G/W38T),Km,[2],17.5 ± 4.3 µM
same,kcat,[2],0.014 ± 0.001 s⁻¹
